Here are results for 41 sequences from the nanobody polyreactivity screen of Harvey et al. (2022).

This series can be described thus: yeast display, Sf9 membrane polyspecificity reagent, FACS + sequencing; frameworks hold sequencing errors. In a few lines:
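Synthetic nanobody libraries on Saccharomyces cerevisiae BJ5465 were galactose-induced for 36–48 hours, stained 1 hour at 4 °C with 10% biotinylated, detergent-solubilized Sf9 membrane reagent and enriched on streptavidin microbeads. FACS then separated cells into low and high (top ~1%) gates by anti-HA (expression) and streptavidin (reagent binding) fluorescence. Genes were colony-PCR amplified, MiSeq 2 × 250 sequenced and CDR-length filtered. A clone's polyreactivity label is that of its gate of origin.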
In the case of “QVQLVESGGGLVHAGGSLRLSCAASGRTFNGYVMGWYRQAPGKERELVAAITNRDGSTYYADSVKGRFTISRDNAKNTVYLQMYSLKPEDSAVYYCAAPVWLWADRYDSWGQGTQVTVSS”, the “polyreactivity (PSR sort gate)” value is given as “low polyreactivity”.

“QVQLVDSGGGLVQAGGSLRLSCPASGRTFFNNVMGWSRQAPGKEREWVAAISKSGTRTYYADSVKGRFTISRDNAKNTVYLQMNSLKPEDTAVYYCATGPYLRTSRYYYWGQGTQVTVSS”: the “polyreactivity (PSR sort gate)” value was “high polyreactivity”.

In the case of “QVQLVESGGGLVQAGGSLRLSCAASGRTFASNAMGWYRQAPGKERELVAAISVTGGRTYYADSVKGRFTISRDNAKNTVYLQMNRLKPEDTAVYYCAKDLTLFSGPFPEFGYWGQGTQVTVSS”, the “polyreactivity (PSR sort gate)” value is recorded as “low polyreactivity”.

Regarding “QVQLVESGGGLVQAGGSLRLSCAASGFILRYNAMGWYRQAPGKERELVAAISYTGDRTYYADSVKGRFTISRDNAKNTVYLQMNSLKPEDTAVYYCNAVTYGSYYYWGQGTQVTVSS”, the “polyreactivity (PSR sort gate)” value is “high polyreactivity”.

For the sequence “QVQLVESAGGLVQAGGILRLSCHASGITFTSYVMGWYRQSPGKERELVAAIRWSGGRTYYADSVKGRFTISRDNAKNTVYLQMNSLKPEDTAVYYCNRVTRSHVDYWGQGTQVTVSS”, the “polyreactivity (PSR sort gate)” value is “high polyreactivity”.

Turning to “QVQLVESGGGLVQAGGSLRLSCAASGRIIDYYTMGWDRQAPGKERELVATITIVGITNYADSVKGRFTISRDNAKNTVYLQMNSLKPEDTAVYYCAADRADFFVIRTIDPYDYWGQGTQVTVSS”, the “polyreactivity (PSR sort gate)” value was “low polyreactivity”.

“QVQLVESGGGLVQAGGSLRLSCAASGSIIGYYAMGWYRQAPGKDRELVAAISWSDGSTYYAVSVKGRFTISRDNAKNTVFLQMNSLKPEVTAVYYCAARFTPYITSDDGHYDYWGQGTQVTVSA”: the “polyreactivity (PSR sort gate)” value is listed as “low polyreactivity”.

As for “QDQLVESGGGLVQAGGSLRLSCAASGTTFYRYAMGWYRQAPGKERELVAAISSSGGYTYYADSVKGRFTISRDIAKNTVYLQMNSLKPEDTAVYYCNAAYRVRRFDYWGQGTQVTVSS”, the “polyreactivity (PSR sort gate)” value was “low polyreactivity”.

Regarding “QVQLVESGGGLVQAGGSLRLSCAASGGTFQSNAMGWYRQAPGKERELVASITSRGSSTYYADSVKGRFTISRDNAKNTFYLLMNSLKPEDTAVYYCAKGSSWQIYYKGGIKGGYWGQGTQVTVSS”, the “polyreactivity (PSR sort gate)” value was “low polyreactivity”.

On to “QVQLVESGGGLVQAGGSLRLSCADSGFTFDWYAMGWYRQAPGKERELVAAISGRGGSTYYADSVKGRFTISRDNAKNTVYLQMNSLKPEDTAVYDCNAVYGAYRYEYWGQGTQVTVSS”, for which the “polyreactivity (PSR sort gate)” value is given as “high polyreactivity”.

Consider “QVQLVESGGCIVQAGGSLRLSSPASGRNFTRYGKGWDRQAPRKERELVAAISKSTGNTYYADCVKGRFTISRDFAKNTVYLQMNSLKPEDTAVYYCAASKNKRPPYDYWGQGTQVNVSS”, for which the “polyreactivity (PSR sort gate)” value is “high polyreactivity”.

Regarding “QVHLVESGGGLVQAGGSLRLSCAASGSIFAAYTMGWYRRAPGKERELVAAISVSTVSTYYADSVKGRFTISRDNAKNTVYLQMNSLNPEDTAVYYCNADATDSYPEKDEHDSWGQGTQVTVSS”, the “polyreactivity (PSR sort gate)” value is “low polyreactivity”.

Consider “QVQLVESGGGLVQAGGSLRLSCAASGRTFQRNAMGWYRQAPGKERELVAAISWRGGSTYYADSVKGRFTISRDNAKNTVYLQMNSLKPEDTAVYYCNTYPSQYLWYDYWGQGTQVTVSS”, for which the “polyreactivity (PSR sort gate)” value is “high polyreactivity”.

With “QVQLVESGRGLVHAGGSLLLSCAASGSTFGWYAMGRFIQARGKEREFVAAISWSGTSTYYADSVKGRFTISRDNAKNTFDLQMNSLKPEDTAVYYCASRWVVFTEREDYWGQGTQVTVSS”, the “polyreactivity (PSR sort gate)” value is “low polyreactivity”.

With “QVQLVESGGGLVQAGGSLRLSCAASAFTFDPYARGWYRHAPGKERELDAANSWSGGSTYYADSVKGRFTISRDHAKNSVYLQMNSLKPEDTAVYYCAAEWYNSAYYEYDYWGQGTQVTVSS”, the “polyreactivity (PSR sort gate)” value was “high polyreactivity”.

“QVQLVESGGGLVQAGGSLRLSCSDSGSTFPYHAMGWYRPAPGKERELVAAIDSSDGITYYADSVKGRFTISRDNAKNTVYLQMNRLKPEDTAVYYCAAEDYEAGYDFWGQGTQVTVSS”: the “polyreactivity (PSR sort gate)” value is on record as “high polyreactivity”.

Turning to “QVQLVESGGGLVQAGGSLRLSCAASGSIFYENAMGWYRQAPGKERELVAAISRSGGSTYYADSVKGRFTISRDNAKNTVSLQMNSLKPEDTAVYYCAADVYVFIGDYWGQGTQVTVSS”, the “polyreactivity (PSR sort gate)” value is “low polyreactivity”.

Regarding “QVQLVESGGGLVQAGGSLRLSCAASGIIIKRNAMGWYRQAPGKEMELVAAISRSGGSTYYSDSVKGRFTISRDIAMNTVYLQMNSLKAEDTAVYYCAADWSEYPYDYWGQGTQVTVSS”, the “polyreactivity (PSR sort gate)” value is “low polyreactivity”.

In the case of “QVQLVESGGGLVQAGGSLRLSCAASGRIFYANAMGWYRQAPGKERELVAAISSGGSTYYADSVKGRFTISRDNAKNTVYLQMNSLKPEDTAVYYCAKDTGSRTDSWTVWHDYWGQGTQVTVSS”, the “polyreactivity (PSR sort gate)” value was “low polyreactivity”.

In the case of “QVQLVESGGGLVQAGGSLRLSCAASGRILSYYAMGWYRQAPGKERELVAVIRRGASTYADSVKGRFTISRDNAKNTVYLQMNSLKPEDTAVYYCNADRVVGLSATKYGYWGQGTQVTVSS”, the “polyreactivity (PSR sort gate)” value is given as “low polyreactivity”.

As to “QVQLVESGGGLVQAGGSLRLTCAASGRISKIYAMGWYRQAPGKERELVAAINSGGSTNYADSVKGRFTISRDNAKNTVYLQMNSLKPEDTAVYYCAATFKSGMDFWGQGTQVTVSS”, the “polyreactivity (PSR sort gate)” value is “high polyreactivity”.

Turning to “QVQLVESGGGLVQAGGSLRLSCAASGSTFASYVMGGYSQAPGKERELVAGIDVRGVSTYYADSVKGRFTISRDNAKNTVYLQMNSLKPEDTAVYYCAIDNRYEMDYWGQGTQVTVSS”, the “polyreactivity (PSR sort gate)” value is “low polyreactivity”.

Take “QVQLVESGGGLVEAGGSLRLSCAASGSTINYNAMGWYRQAPGKERELVAAIDSGVSTNYADSVNGRFTISRDNAKNTVYLQMNSLKPEDTAVYYCAVGGAGSDDYWGQRTQVTVSS”: the “polyreactivity (PSR sort gate)” value was “low polyreactivity”.

With “QDQLVESGGGLVQAGGSLRLSCAASGLIFYGNAMGWYRQAPGQERELVADISGSSVRTYYADSVKGRFTISRDNAKNTVCLQMNSLKPEDTAVYYCAATYGYLYTGLSRYDYWGQGTQVTVSS”, the “polyreactivity (PSR sort gate)” value is “low polyreactivity”.

As for “QVQLQESGGGLVQAGGCLSCTASGTIFGQGDMGWYRQAPGKERELVATINDGASTYYADSVKGRFTISRDKAKNTVYLQKNSLKPDDTAVYYCAVCTDITTYFGYWGQGTQVTVSS”, the “polyreactivity (PSR sort gate)” value is listed as “low polyreactivity”.

In the case of “QVQLVESGGGLVQARGSLRLSCAASGRIFVINAMGWYRQAPGKERELVAAISQSGGSTYYADSVKGRFTISRDNAKNTVYLQMNSLKPEDTAVYYCNALSNVPYDYWGQGTLVTVSS”, the “polyreactivity (PSR sort gate)” value is recorded as “low polyreactivity”.

Regarding “QVQLVESGGGLVQAGGSLRLSCAASGRTFDVYAMGWYRQAPGKERELVAVIRGRAGSTYYADSVKGRFTISRDNAKNTVYLQMNSLKPEDTAVYYCAAAKYVRRGLRAWRGDEYDYWGQGTQVTVSS”, the “polyreactivity (PSR sort gate)” value is “high polyreactivity”.

On to “QVQLVESGGGLVQAGGSLRLSCAASGAILYGNAMGWYRQAPGKERELVAAISYSGGRTYYADSVKGRFTISRDNAKYTVYLQMNSLKPEDTAVYYCASLHSGRVQNFDYWGQGTQVTVSS”, for which the “polyreactivity (PSR sort gate)” value is recorded as “high polyreactivity”.

On to “QVQLVESGGGLVQAGGSLRLSCGASGRSSYVYAMGWYRQAPGKERELVAAITSSGGSTYYADSVKGRFTISRDNAKNTVYLQMNSLKPEDTAVYYCAAETYPVWGVAFYYWGQGTQVTVSS”, for which the “polyreactivity (PSR sort gate)” value is recorded as “high polyreactivity”.

In the case of “QVQLVESGGGLVQAGGSLRLSCAASGSTSYNMGWYRQAPGKERELVAAISYRGGRTYYADSVKGRFTISRDNAKNTVYLQMNSLKPEDTAVYYCAKGIFDTFDSWGQGTQVTVSS”, the “polyreactivity (PSR sort gate)” value is “low polyreactivity”.

With “QVQIVESGGGLVQAGGSLRLSCAASGRTFVTYAMGWYRQAPGKERELVAAISRRGGSTYYADSVKGRFTISRDNAKNTVYLQMNSLKPEDTAVYYCAADPTYRTKFGYWGQGTQVTVSS”, the “polyreactivity (PSR sort gate)” value is recorded as “high polyreactivity”.

Take “QFQLVESGGGLVQAGGSLRLSCAASGRTFGRYAMGRDRPAPGKERELVAAINSGGSTYYADSVKGRFTISRDNAKNTVYLQMMSLKPEDTAVYYCDTQWTWKLGYWGQGTQVTVSS”: the “polyreactivity (PSR sort gate)” value is on record as “high polyreactivity”.

Turning to “QDQLVESGGGLFQAGGSLRLSCAASGSIFGHYAMGWYRQAPGKERELVAAISWRGGSTYYADSVKGRFTISRDNAKNTVYIQMNSLKPEDTAVYYCAADRWDKAYDYWGQVTQVTVSS”, the “polyreactivity (PSR sort gate)” value was “low polyreactivity”.

As for “QVQLVESGGGLVQAGGSLRLSCAASGFTFYYYAMGWYRQAPGKEREMVAAISGGGGSTYYADSVKGRFTISRDNAKNTVYLQMNSLKPEDTAVFYCAAEYRGYPEDEYWGQGTQVTVSS”, the “polyreactivity (PSR sort gate)” value is recorded as “high polyreactivity”.

With “QVQLVESGGVLVQAGGSLRLSCAASGRSFDENSMGWYRQAPGKERELVAAITGGDSTNYADSVKGRFTISRDNAKNTVYLQMNSLKPEDTAVYYCAKDQERVTKGRFYLLEYYWGQGTQVTVSS”, the “polyreactivity (PSR sort gate)” value was “low polyreactivity”.

Regarding “QVQLVESGGGLVQAGGSLRLSCAASGLIFDRNAMGWYRQAPGKERELVAAITYSGSRTYYADSVKGRFTISRDNAKNTVYLQMNSLKPEDTAVYYCAARHRYSAGTEYNYWGQGTQVTVSS”, the “polyreactivity (PSR sort gate)” value is on record as “high polyreactivity”.

With “QVQLVETGGGLVQAGGSLRLSCAASGITFFAYAMGWYRQAPGKERELVAAISTGGSTNYADSVKGRFTISRDNAKNTVYLQMNSLKPEDTAVYYCGSDRSDLAEEGYAGYDYWGQVTQVTVSS”, the “polyreactivity (PSR sort gate)” value is recorded as “low polyreactivity”.

As to “QVQLVESGGGLVQAGGSLRLSCAASGSTFIGYAMGWYRHAPGKERELVAGINWSSGSTNYADSVKGRFTISRDNAKNTVYLQMNSLIPEDTAVYYCAADLYWYAHREEYDYWGQGTQVTVSS”, the “polyreactivity (PSR sort gate)” value is on record as “high polyreactivity”.

Take “QVQLVESGGGLVQAGGSLRLSCAASGSTFGYNAMGWYRQAPGKERELVASITWSSGSTYYADSVKGRFTISRDNAKNTVYLQMNSLKPEDTAVYYCAADVEYWSYEFNYWGQGTQVTVSS”: the “polyreactivity (PSR sort gate)” value is on record as “low polyreactivity”.

Turning to “QVQLVESGGCLVQAGGSLRLSCAASGSIRSYAMGWYRQAPGKERELVAAITRSGGSTYYADSVKGRFTISRDNAKNTVYLPMKSLKPEDTAVYYCAARYTYSYPLFGSWGQGTQVTVSS”, the “polyreactivity (PSR sort gate)” value was “high polyreactivity”.

Consider “QVHLVESGGGLVQAGGSLRLSCAASGVIFFYYAMGWYRQAPGKESELVAVIDRSGGTTYYADSVKGRFTISRDNAKNTVYLQMNSLKPEDTAVYYCNADDFTYPSGWGFIYDYWGQGTQVTVSS”, for which the “polyreactivity (PSR sort gate)” value was “low polyreactivity”.
